# Test results as given in patent US20250186535A1, “OPHTALMIC COMPOSITIONS AND METHODS OF USING SAME” (Tarsier Pharma Ltd., priority 2021, published 2025).
# *1 amine or outer side, *2 acyl side, *3 side chain or, on linkers, in order; H or OH if unused. Where a SMILES comes first, the peptide text is derived from it. [ ]: non-standard residue; d: D form. X1 = C[N+](C)(C)CCOP(=O)([O-])Oc1ccc(/N=N/c2cc(C[C@H](N[*:1])C(=O)[*:2])ccc2O)cc1
# Assay: Solubility of drug substance in water
# Format: physicochemical
# Description: Drug Substance [TRS]: is a trifluoroacetate [TFA] salt of phosphorylcholine-tuftsin conjugate represented by Formula 1, SEQ ID NO: 2 (as shown herein). Molecular formula: C43H68N13013P, Appearance: Yellow to orange solid. Solubility: >40 mg/ml in water.
compound,measurement,value
"C[C@@H](O)[C@H](N)C(=O)N[C@@H](CCCCN)C(=O)N1CCC[C@H]1C(=O)N[C@@H](CCCNC(=N)N)C(=O)NCC(=O)N[C@@H](Cc1ccc(O)c(/N=N/c2ccc(OP(=O)([O-])OCC[N+](C)(C)C)cc2)c1)C(=O)O [TRS, phosphorylcholine-tuftsin conjugate] (H-TKPRG[X1]-OH)",solubility,> 40 mg/mL
